This note sets out measurements from article PMC7796288.

In the test the target is Pomacea bridgesii metallothionein 2 (PbrMT2), recombinant Cd(II)-loaded preparation (Pomacea bridgesii). As to the kind of experiment: native MS; ESI-TOF MS at neutral pH (7.0), running buffer 5:95 acetonitrile:ammonium acetate (15 mM); Cd-PbrMT2 production from a CdCl2-supplemented culture; dimeric species seen together with monomeric Cd8- and Cd9- species.

Take “Pomacea bridgesii metallothionein 2 (PbrMT2), recombinant Cd(II)-loaded preparation (natural protein)”: the stoichiometry N is 2.

One may read the stoichiometry N as the number of molecules, sites or subunits per partner or assembly.
